What was measured:
[1] = molecular target: GCN4-TRAK1_(342-431) (UniProt Q9UPV9); test: ITC; VP-ITC, 25 °C; ITC buffer (20 mM Hepes pH 7.5, 400 mM NaCl, 1 mM MgCl2, 5% w/v sucrose, 0.1 μM GTP) with 5 mM EGTA; the binder of each row in the syringe
[2] = molecular target: GCN4-TRAK1_(342-431) (UniProt Q9UPV9); test: ITC; VP-ITC, 25 °C; ITC buffer (20 mM Hepes pH 7.5, 400 mM NaCl, 1 mM MgCl2, 5% w/v sucrose, 0.1 μM GTP) with 50 μM CaCl2; MIRO1_(177-591) in the syringe, TRAK1 construct in the cell

MIRO1_(177-591), sequence (Q8IXI2 177-591): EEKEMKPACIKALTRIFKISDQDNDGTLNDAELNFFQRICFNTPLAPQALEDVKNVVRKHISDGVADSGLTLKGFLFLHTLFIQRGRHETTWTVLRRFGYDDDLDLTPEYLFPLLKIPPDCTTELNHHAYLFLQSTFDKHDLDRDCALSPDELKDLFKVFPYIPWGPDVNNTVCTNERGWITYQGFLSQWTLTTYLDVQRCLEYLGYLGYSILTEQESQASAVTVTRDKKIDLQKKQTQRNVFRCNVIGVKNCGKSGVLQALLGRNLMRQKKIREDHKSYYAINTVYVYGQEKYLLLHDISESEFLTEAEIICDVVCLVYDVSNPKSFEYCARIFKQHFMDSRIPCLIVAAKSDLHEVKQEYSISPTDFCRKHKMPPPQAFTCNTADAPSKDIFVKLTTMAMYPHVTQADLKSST

MIRO1_(177-591) (from UniProt Q8IXI2 177-591) (domain or fragment)
Kd [1]: 5.13 µM | stoichiometry N [1]: 1.84 | Kd [2]: 7.04 µM | stoichiometry N [2]: 1.93
